Measurements as given in article doi:10.1101/2025.02.17.637997, “Phosphorylation-State Modulated Binding of HSP70: Structural Insights and Compensatory Protein Engineering” (bioRxiv, 2025).
Changes are numbered by the printed parent chain. In names and notes the source's numbering stands. Entries after “also recorded” stand apart in the source; their conditions may differ. Square brackets hold non-standard residues; d marks the D form. Ends that are not written are not given here. * marks the point of attachment. FITC = O=C1OC2(c3ccc(O)cc3Oc3cc(O)ccc32)c2ccc(NC(=S)*)cc21; Biotin = O=C1N[C@H]2[C@H](CS[C@H]2CCCCC(=O)*)N1; pT = C[C@@H](OP(=O)(O)O)[C@H](N)C(=O)O; Ahx = NCCCCCC(=O)O

What was measured:
CHIP = CHIP (UniProt Q9UNE7); assay: fluorescence polarization titration; conditions: reference: unphosphorylated EEVD peptide; sites T636
CHIP-TPR (21–154) [1] = biological target: T1, CHIP-TPR (21–154) (UniProt Q9UNE7 21-154); assay: biolayer interferometry, peptide on sensor; conditions: reference: biotin-EEVD peptide; sites T636
T1 construct: also called extended TPR domain of CHIP
T1 sequence (looked up): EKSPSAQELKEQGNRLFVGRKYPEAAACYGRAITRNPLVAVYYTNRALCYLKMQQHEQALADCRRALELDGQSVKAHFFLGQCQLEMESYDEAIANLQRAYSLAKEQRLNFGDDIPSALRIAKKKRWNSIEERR

[2] = system: HSP70 steady-state levels in HEK-293 cells; assay: Cycloheximide chase of HSP70 steady-state levels, HEK-293; type: cell-based; conditions: Flag immunoblot, representative, Fig. S1
Experimental: (§1) HEK293 and COS-7 cells were acquired from the UNC Lineberger Comprehensive Cancer Center Tissue Culture Facility. Cultures were maintained in Dulbecco’s Modified Eagle Medium with 10% fetal bovine serum at 37 °C and 5% CO2. Using the manufacturers’ instructions, X-tremeGENE 9 was used to transfect cells with plasmid DNA except for NanoBiT constructs, in which case we used Lipofectamine 3000 (Thermo Fisher Scientific). Where indicated, twenty-four hours post-transfection, cells were treated with 20 μM MG-132 (Selleck Chemicals) for 6 h or 100 μM cycloheximide (Sigma-Aldrich) for the stated duration.
(§2) Samples were collected in a lysis buffer composed of 50 mM Tris-HCl (pH 7.4), 150 mM NaCl, 2 mM EDTA, and 1% Triton X-100, supplemented with 1X Halt protease and phosphatase inhibitor (Thermo Scientific). The samples were then sonicated and combined with Laemmli sample buffer (Bio-Rad). The lysates were resolved on 4–15% TGX Stain-Free gels (Bio-Rad) and transferred to PVDF membranes (Bio-Rad). The membranes were blocked in 5% milk and incubated with primary antibodies (Table S3) overnight at 4°C. Following this, HRP-conjugated secondary antibodies (Cell Signaling Technology) were applied. Detection was performed using Lumigen ECL Ultra (Lumigen, tma-100), and the blots were imaged with the ChemiDoc Imaging System (BioRad).

CHIP-TPR N65S = biological target: T2, CHIP-TPR N65S (UniProt Q9UNE7 21-154, N65S); assay: BLI; BLItz, biotin peptides loaded on streptavidin sensors, TPR protein constructs at 1 to 25 μM; 20 mM HEPES, 150 mM NaCl, 5 mM β-mercaptoethanol, pH 7.2; Kd=koff/kon; conditions: both partners purified
T2 construct: CHIP, extended TPR domain, residues 21-154, with N65S; control of the BLI experiment; also called CHIP-N65S
T2 sequence (looked up): T1 sequence (looked up) with N45S

CHIP-TPR G132S = biological target: T3, CHIP-TPR G132S (UniProt Q9UNE7 21-154, G132S); assay: as above; conditions: both partners purified
T3 construct: CHIP, extended TPR domain, residues 21-154, with G132S; site modification control of the BLI experiment; also called CHIP-G132S
T3 sequence (looked up): T1 sequence (looked up) with G112S

CHIP-TPR (21–154) [3] = biological target: T1, CHIP-TPR (21–154); assay: crystal structure; CHIP-TPR co-crystallised with peptide at a 3:1 peptide:protein ratio, sitting drop vapor diffusion at room temperature; 0.2 M lithium sulfate, 0.1 M Tris-HCl, pH 8.5, 30% PEG 4000; conditions: both partners purified
[4] = biological target: T4, recombinant full-length CHIP-WT (UniProt Q9UNE7 1-303); assay: FP
T4 chain: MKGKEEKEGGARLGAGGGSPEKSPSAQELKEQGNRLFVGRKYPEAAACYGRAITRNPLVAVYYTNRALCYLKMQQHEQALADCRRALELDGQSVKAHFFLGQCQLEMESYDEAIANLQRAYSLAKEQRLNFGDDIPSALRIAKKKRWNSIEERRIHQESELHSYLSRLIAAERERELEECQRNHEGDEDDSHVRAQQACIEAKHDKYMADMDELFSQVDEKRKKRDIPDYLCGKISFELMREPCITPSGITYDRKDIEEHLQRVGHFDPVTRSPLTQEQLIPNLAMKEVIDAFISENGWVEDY

[5] = biological target: recombinant full-length CHIP-G132N (UniProt Q9UNE7 1-303, G132N); assay: FP
[6] = biological target: T5, recombinant full-length CHIP-G132N (UniProt Q9UNE7 1-303, G132N); assay: fluorescence polarisation; 20 nM N-terminally FITC-labelled peptide, recombinant CHIP constructs at increasing concentrations, 30 minutes at room temperature; one site/total binding fit with Bmax constrained to 100; conditions: both partners purified
T5 construct: CHIP, full-length recombinant protein with G132N
T5 sequence (looked up): T4 chain with G132N

CHIP-TPR (21–154) [7] = biological target: T1, CHIP-TPR (21–154); assay: as above; conditions: both partners purified
[8] = biological target: T6, recombinant full-length CHIP-WT (UniProt Q9UNE7 1-303); assay: as above; conditions: both partners purified
T6 sequence (looked up): T4 chain

HSC70 = assay: Cell-free ubiquitination of HSC70 by CHIP; type: biochemical, human; conditions: 100 nM Uba1, 1 μM UBE2D2, 200 nM Hsc70, 100 μM Ub, 1 μM CHIP, pH 8.0, 15 min, room temperature; three experiments; p = 0.0774; Fig. 1K
Experimental: Ubiquitination assays were conducted using recombinant human HSC70, fluorescently tagged on its N-terminus. All assay components except ubiquitin were premixed on ice in a BSA-containing buffer (20 mM HEPES, pH 8.0; 200 mM NaCl; 0.5 mg/mL BSA). Reactions were initiated by adding ubiquitin and were allowed to proceed at room temperature unless specified otherwise. The reactions contained a final concentration of 100 nM Uba1, 1 μM UBE2D2, 200 nM Hsc70, 100 μM Ub, 5 mM MgCl2-ATP, and 1 μM CHIP. The reactions proceeded for 15 minutes before being quenched with SDS loading buffer. The quenched samples were separated by molecular weight via SDS-PAGE in non-reducing conditions using GenScript SurePAGE 4–12% gels. The CHIP-dependent ubiquitination of Hsc70 was visualized and quantified through fluorescent scanning on an Amersham Typhoon 5.

CHIP-G132N = biological target: T7, CHIP-G132N (Homo sapiens, UniProt Q9UNE7, G132N); assay: Biolayer interferometry, CHIP-G132N TPR; type: binding; conditions: BLI; CHIP-G132N TPR; Fig. 2E
T7 construct: Recombinant CHIP-TPR constructs were recombinantly expressed using the pHis//2 CHIP-TPR (21–154) plasmid; His; made in house
T7 sequence (Q9UNE7 21-154 G132N): T1 sequence (looked up) with G112N
Experimental: Bio-layer interferometry measured peptide binding using a BLItz instrument (FortéBio, Sartorius) with streptavidin (SA) sensors. Biotin-EEVD and biotin-pEEVD were solubilized in 20 mM HEPES, 150 mM NaCl, pH 7.0. Affinity measurements were made using the advanced kinetic protocol within the BLItz Pro system software. Biosensors were hydrated for ten minutes in assay buffer comprising 20 mM HEPES, 150 mM NaCl, 5 mM β-mercaptoethanol, pH 7.2. For each affinity measurement, a new, hydrated biosensor was placed on the BLItz tip, and the “Initial Baseline” step was completed by incubation for 30 seconds in 500 μl assay buffer in an opaque black microcentrifuge tube (Argos Technologies). Peptides were loaded during the “Loading Step” by incubating the tip in 4 μl of either peptide for 60 seconds. The “Baseline step” was then conducted by incubation for 30 seconds in 500 μl assay buffer in an opaque black microcentrifuge tube. The “Association step” was performed by incubating the tip in 4 μl of the appropriate TPR protein construct, at protein concentrations of 1 to 25 μM, in assay buffer in an opaque black microcentrifuge tube for 120 seconds. […] Affinities (Kd) were calculated by the BLItz Pro software as Kd=koff/kon, where koff and kon were determined by individual fits to the “dissociation step” and “association step,” respectively, for each run.

LgBiT-HSP70 T636A/D = assay: NanoBiT live-cell interaction, HEK-293, CHIP variants with LgBiT-HSP70; type: cell-based; conditions: compared with CHIP-WT, Fig. 1E
Experimental: as §1
NanoBiT Protein: Protein Interaction System (Promega) was used to measure protein-protein interaction data following the manufacturer’s instructions. As previously described, LgBiT-HSP70 and SmBiT-CHIP construct interactions were used as positive controls ([22]). Twenty-four hours post-transfection, the cells were collected, replated in 96-well clear bottom white-sided tissue culture plates, and maintained at 37 °C and 5% CO2 for 45 min. Nano-Glo Live Cell Reagent (Promega) was added, and luminescence was measured using a CLARIOstar microplate reader over 20 minutes. The total area under the maximum luminescence curve was quantified and used to compare changes in HSP70-CHIP interactions relative to the WT-WT conditions.

HSP70 = assay: Co-immunoprecipitation of CHIP variants with HSP70, COS-7; type: cell-based; conditions: Co-IP of MYC-CHIP, Fig. 1I
Experimental: as §2
Ezview™ Red Anti-c-Myc Affinity Gel Beads (Sigma-Aldrich) were used for co-immunoprecipitation of myc-tagged proteins. Proteins were eluted via boiling before western blot analysis.

For “HSP70 C-terminal tail (from UniProt P0DMV8) pEEVD (pT636) peptide”, the fold change (CHIP) was “weaker”.

With “HSP70 C-terminal tail (from UniProt P0DMV8) biotin-pEEVD (pT636) peptide” the fold change (CHIP-TPR (21–154) [1]) was “weaker”.

With “HSP70-T636A: phospho-null version of HSP70” the “percent change of HSP70 level from time 0” value ([2]; cycloheximide +MG132, 6 h (column from layout)) was “+31%” and the “percent change of HSP70 level from time 0” value ([2]; cycloheximide, 6 h, without MG132 (column from layout)) was -84%.

B1: amino-terminal biotin-labeled HSP70 tail peptide biotin-GSGSGPTIEEVD (peptide)
peptide: Biotin-GSGSGPTIEEVD
notes: C-terminal tail of HSP70; loaded on streptavidin sensors for BLI; also called biotin-EEVD; source: synthetic peptide, bought: Lifetein
B1: binds (CHIP-TPR N65S); binds (CHIP-TPR G132S).

B2: amino-terminal biotin-labeled pT-HSP70 tail peptide biotin-GSGSGP(pT)IEEVD (peptide)
peptide: Biotin-GSGSGP[pT]IEEVD
notes: loaded on streptavidin sensors for BLI; also called biotin-pEEVD; pEEVD; source: synthetic peptide, bought: Lifetein
B2: binds (CHIP-TPR N65S); binds (CHIP-TPR G132S).

B3: phosphorylated HSP(C)70 peptide GP(pT)IEEVD (peptide)
peptide: GP[pT]IEEVD
notes: used for co-crystallisation with CHIP-TPR; also called pEEVD; pT-HSP70 peptide; source: synthetic peptide (Lifetein or Genscript)
B3: binds (CHIP-TPR (21–154) [3]).

B4: unphosphorylated HSP(C)70 peptide GPTIEEVD (peptide)
peptide: GPTIEEVD
notes: C-terminal tail of HSP70 (T636 is the third residue); used for co-crystallisation with CHIP-TPR; also called HSP70 peptide; HSP70 tail; source: synthetic peptide (Lifetein or Genscript)
B4: binds (CHIP-TPR (21–154) [3]).

B5: N-FITC-Ahx-GSGP(pT)IEEVD (peptide)
peptide: {FITC-Ahx}-GSGP[pT]IEEVD
notes: tracer of the fluorescence polarisation assay; also called pEEVD; phosphorylated EEVD peptide; source: synthetic peptide (Lifetein or Genscript)
B5 was tested, and the Kd [4] was 46 µM, the Kd [5] was 96 µM and the binding result [6] was “binds”. B5: binds (CHIP-TPR (21–154) [7]); binds [8].

B6: CHIP-G132N: engineered CHIP variant to restore binding affinity to phosphorylated HSP70 (protein)
chain: T4 chain with G132N
For B6, the “ubiquitination of HSC70” value (HSC70) was “not different; also recorded: trend towards decreased ligase activity”, the “effect on binding affinity towards phosphorylated EEVD tail” value (CHIP-G132N) was “rescued the binding affinity” and the “luminescence of CHIP variant with HSP70-T636A/D” value (LgBiT-HSP70 T636A/D) was “lower luminescence”. For the same molecule, the “co-precipitation of HSP70 by CHIP variant” value (HSP70) was “did not override the effect of the HSP70-T636D phosphomimetic”.

B7: CHIP-WT: wild-type CHIP, E3 ligase co-chaperone (protein)
chain: T4 chain
B7 was tested, and the “ubiquitination of HSC70” value (HSC70) was “not different”.
